Laboratory results reported in paper PMC3135480 (Molecular Biology of the Cell, 2011).

Molecular target: T1, HA-tagged PXL-1 full-length (residues 1-413) (C. elegans, UniProt Q09476 1-413)
T1 sequence (looked up): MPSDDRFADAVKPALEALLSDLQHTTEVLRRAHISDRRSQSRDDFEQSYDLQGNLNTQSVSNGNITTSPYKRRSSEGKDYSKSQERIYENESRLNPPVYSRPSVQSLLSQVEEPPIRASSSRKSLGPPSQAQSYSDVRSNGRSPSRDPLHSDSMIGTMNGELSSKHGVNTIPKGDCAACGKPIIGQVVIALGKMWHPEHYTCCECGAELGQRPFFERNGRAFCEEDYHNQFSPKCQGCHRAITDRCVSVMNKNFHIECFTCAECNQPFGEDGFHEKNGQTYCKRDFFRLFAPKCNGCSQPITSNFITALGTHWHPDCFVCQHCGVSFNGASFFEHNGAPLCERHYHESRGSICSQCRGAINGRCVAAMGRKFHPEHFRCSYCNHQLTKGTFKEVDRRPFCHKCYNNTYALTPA
Test: pull-down

B1: MBP fusion of UNC-95 full-length (natural protein, C. elegans, UniProt Q9NEZ5 1-350, looked up)
chain: MTISPQPSHQQFESYQWTTESRSSQQRHGTGTPSQDGRLSAIPDPVERHVARWRSESRNSNKDKVFRNDEEFSQQDEIVNGTLTALKNDVEQTTEIIRRKQEQMRMERRQFQTEMEVNGRISIDPTDDWLAARLKAVSSDDMNQQLVKLKQDQRQNAVTDTLAALVYDVNATTEVLRRGQRGRDGEDGNKKKKEEIEYTLRLTPAPEEQIPQRPKIPEDDNMETDDYSRQYGVQMSEETDSLRRRRARSTTPRRTLHISGSPPPPAAAVCAYCSEEIDGAILTALAPNSERAQKFHTYHFMCTYCQKALNMHGTYREHDLKPYCHDCFYKLYNGLQYAPDDHQASIEKLI
binding result: binds
